The nanobody polyreactivity screen of Harvey et al. (2022)

Assay: yeast display, Sf9 membrane polyspecificity reagent, FACS + sequencing; frameworks hold sequencing errors
Procedure, shortened: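 Galactose-induced (36–48 hours) yeast carrying a synthetic nanobody display library were exposed to 10% biotinylated, detergent-solubilized Sf9 membrane reagent at 4 °C for 1 hour. FACS followed streptavidin microbead enrichment, using low and high (top ~1%) gates for expression (anti-HA) and reagent binding (streptavidin). Colony PCR, MiSeq 2 × 250 sequencing and CDR-length filtering followed. Labels for polyreactivity reflect the gate of origin.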

Question: With “QVQLVESGGGLVQAGGSLRLSCAASGFTFQENAMGWYRQAPGKERELVAAISKSGGITYYADSVKGRFTISRDNAKNTVYLHMNSLKPEDTAVYYCNKGNAYVVYTSGYDYWGQGTQVTVSS” as the sequence, how does the “polyreactivity (PSR sort gate)” value read?
Answer: low polyreactivity

Question: For “QVQLVESGGGLVQAGGSLRLSCAASGSTFAASVMGWYRQAPVKERELVAAISTSGGGTYYADSVKGRFTISRDNAKNTVYLQMNSLIPEDTAVYYCAADYGSGSVSYDYWGQGTQVTVSS”, which “polyreactivity (PSR sort gate)” value is on record?
Answer: low polyreactivity

Question: For “QVQLVESGGGLVQAGGSLRLSCAASGSILRQYAMGWYRQAPGKERELVATITGDGSTNYADSVKGRFTISRDNAKNTVYLQMNSLKPEDTAVYYCNAELPVHWSWYDYWGQGTQVTVSS”, which “polyreactivity (PSR sort gate)” value is on record?
Answer: low polyreactivity

Question: Which “polyreactivity (PSR sort gate)” value does the source give for “QVQLVESGGGLVQAGGSLRLSFAASGSIFKGYTMGWYIQAPGKEREFVASISRRGGSTYYADSVKGRFTISRDNAKNTVYLQMNSLKPEYTAVYYCAKDYGKAYDYWGQGTQVTVSS” here?
Answer: high polyreactivity

Question: For “QVQLEESGGGLVQAGGSLRLSCAASGRTFAFNAMGWYRPAPGKVRELVAVITSRTTRTYYADSVKGRFTISRDNAKNTVYLQMNSLKPEDTAVYYCAAGFRRQSIRFDYWGQGTQVTVSS”, which “polyreactivity (PSR sort gate)” value is on record?
Answer: high polyreactivity

Question: With “QVQLVESGGGLVQAGGSLRLSCAASGSIFYTNAMGWYRQAPGKEREFVAGITRRGTSTNYADSVKGRFTISRDKAKNTVYLQMNSQKPEDTAVYYCNARYYLYWGQGTQVTVSS” as the sequence, how does the “polyreactivity (PSR sort gate)” value read?
Answer: low polyreactivity

Question: For “QVQLVESGGGLVQAGGSLRLSCAASGRNFPSYAMGWYRQAPGKERELVAAISFSGASTYYADSVKGRFTFSRDNAKNTVYLQMNSLKPEDTAVYYCNASGVGADVQWSWEEGDYWGQGTQVTVSS”, which “polyreactivity (PSR sort gate)” value is on record?
Answer: low polyreactivity

Question: Which “polyreactivity (PSR sort gate)” value does the source give for “QVQLVESGGGLVQAGGSLRLSCAASGFTLQGYAMGWYRQAPGKERELVAAIRWIGTSTYYADSVKGRFTISRDIAKNTVYLQMNSLKPEDTAVYYCAAYRYNTPFGYWGQGTQVTVSS” here?
Answer: high polyreactivity

Question: Which “polyreactivity (PSR sort gate)” value does the source give for “QVQLVESGGGLVQAGGSLRLSCAASGFTLADNTMGWYRQAPGKERELVATISGSGSTYYADSVKGRFTISRDNAKNTVYLQMNSLKPEDTAVYYCAAVDTGTEKDLLRLGNGGYDYWGQGTQVTVSS” here?
Answer: low polyreactivity

Question: With “QVQLVESGGGLVQAGGSLRLSCAASGFTFPRNVMGWYRQAPGKERELVATISSGGRTNYADSVKGRFTISRDNAKNTVYLQMNSLKPEDTAVYYCAARVYTYYYDLHKRYYWGQGTQVTVSS” as the sequence, how does the “polyreactivity (PSR sort gate)” value read?
Answer: high polyreactivity

Question: For “QVQLVESGGGLVQAGGSLRLSCAASGFIFGYYAMAWYRQAPGKERELVAAITSGTGTNYADSVKGRFTISRDNAKNTVYLQMNSLKPEDTAVYYCAAYYTWLSEFGYWGQGTQVTVSS”, which “polyreactivity (PSR sort gate)” value is on record?
Answer: low polyreactivity

Question: For “QVQLVESGGGLVQAGGSLRLSCAASGRNLEYYAMGWYRQAPGQERELVATITSRGDTTHYADSVKGRFTISRDNAKNTVYLQMNSLKPEDTAVYYCAAAYVEYTPYRWYGDDYWGQGTQVTVSS”, which “polyreactivity (PSR sort gate)” value is on record?
Answer: low polyreactivity

Question: For “QVQLVESGGGLVQAGGSLRLSCAASGRIFYWYVMGWYIQAPGKERELVATIRYSGGNTYYADSVKGRFTISRDNAKNTVYLQMNSLKPEDTAVYYCAAGSLYWGRSPTRGGQGGYWGQGTQVTVSS”, which “polyreactivity (PSR sort gate)” value is on record?
Answer: high polyreactivity

Question: With “QVQLVESGGGLVQAGGSLRLSCAASGRTFGRYVMGWYRQAPGKERQLVARIRGSTTSTYYADSVKGRFTISRDNAKNTVYLQMNSLKPEDTAVYYCAASYSPFASSYGYDYWGQGTQVTVSS” as the sequence, how does the “polyreactivity (PSR sort gate)” value read?
Answer: high polyreactivity

Question: With “QVQLVESGGGLVQAGGSLRLSCAASGRTFFYNTMGWYRQAPGKERELVARITRGGSTYYADSVKGRFTISRDNAKNSVYLQMNSLKPEDTAVYYCAAGYWRGYFLYGFDYWGQGTQVTVSS” as the sequence, how does the “polyreactivity (PSR sort gate)” value read?
Answer: high polyreactivity

Question: For “QVQLVESGGGLVQAGGSLRLSCAASGNTFTWYTMGWYRQAPGKERELVAVITSDGSTYYADSVKGRFTISRDNAKNTVYLQMNSLKPEDTAVYYCNKATVTGQESYAYDYWGQGTQVTVSS”, which “polyreactivity (PSR sort gate)” value is on record?
Answer: low polyreactivity

Question: For “QVQHVESGGGLVQAGGSLRLSCAASGITFSFYAMGWYRQAPGKERELVAAINGRGGRTYYADSVKGRFTISRDNAKNTVYLQMNSLKPEDTAVYYCAAVVWSTDYDYWGQGTQVTVSS”, which “polyreactivity (PSR sort gate)” value is on record?
Answer: low polyreactivity

Question: For “QVQLVESGGGLVQAGGSLRLICAASGNIFSFNDMGWSRPAPGKERELVASITSGGRTNYADSVMGRFTISRDNAKNTVYLQMNSLKPEDTAVYYCAADYSVPTSQAYDYWGQGTQVTVSS”, which “polyreactivity (PSR sort gate)” value is on record?
Answer: low polyreactivity

Question: Which “polyreactivity (PSR sort gate)” value does the source give for “QVHLVESGGGLVQAGGRLRLSCAASGSIFGYNAMGWYRQAPGKERELVAAISSTGGSTYYADSVKGRFTISRDNAKNTVYLQMNSLYPEDTAVYYCAKRGQSYFKGYDYWGQGTQVTVSS” here?
Answer: low polyreactivity

Question: Which “polyreactivity (PSR sort gate)” value does the source give for “QVQIVESGGGLVQAGGSLRLSCAASGIFYAMGWYRQAPWTKRELDDAISSVGSTNYADSVKGRFSISRDNAKNTVYLQMNSLKPEDTAVYYCAAYFYTYPVDRYGSYYWGQVTQVTVSS” here?
Answer: low polyreactivity

Question: With “QDQLVESGVGLVQAGGILRLSCAASVSTFNRYAMVWYRQAPGKERELVAAISSSGGYTYYADSVKGRFTNSRDNAKNTVYFQMNSLKAEDTAVYYCNAAYRVRRFDYWGQGTQVTVSS” as the sequence, how does the “polyreactivity (PSR sort gate)” value read?
Answer: low polyreactivity

Question: For “QVQLVESGGGLVQAGGTLRLSCAPSGSTFYANTMGWYRPAPGKERELVATISWTGSSTYYADSVKGRFTISRDNAKNTVYLQMNSLNPEDTAVYYCNKRYYYRRNYWGQGTQVTVSS”, which “polyreactivity (PSR sort gate)” value is on record?
Answer: high polyreactivity

Question: For “QVQLVESGGGLVQAGGSLRLSCAASGSILNSYAMGWYRQAPGKERELVASITVIGGSTYYADSVKGRFSISRDNAKNTDYLQMNSLKPEDTAVYYCNKEWIIADAYYGVHDYYYWGQGTQVTVSS”, which “polyreactivity (PSR sort gate)” value is on record?
Answer: low polyreactivity

Question: Which “polyreactivity (PSR sort gate)” value does the source give for “QVQLVESGGGLVKAGGSLRLSCAASGRTFGWYVMGWYRQAPGKEMELVAAISLRGGTTYYADSVKGRFTISRDNAKNTVYLQMNSLNPEDTAVYYCAIAGIRHVTCKFKGYHFGYWGQGTQVTVSS” here?
Answer: low polyreactivity

Question: With “QVQLVESGGGLVQAGGSLRLSCAASGFTFDSYAMGWYRQAPGQERELVPAISSSSSTNYADSVKGRFTISRDNAKNTVYLPLNSLKPEDTAVYYCNADSPEGYRLLDYWGQGTQVTVSS” as the sequence, how does the “polyreactivity (PSR sort gate)” value read?
Answer: low polyreactivity

Question: With “QVQLVESGGGLVQAGGSLRLSCAASGRTFVGYTMGWYRQAPGKERELVAAIDLSDGSTSYADSVKGRFTISRDNAKNTVYFQMNSLKPEDTAVYYCAKTWANVYAGAHDYWGQGTQVTVSS” as the sequence, how does the “polyreactivity (PSR sort gate)” value read?
Answer: low polyreactivity

Question: For “QVQLVESGGGLVQAGGSLRLSCAASGSTFIYYAMGWYRQAPGKERELVAGISIRGGSTYADSVKGRFTISRDNAKNTVYLQKNSLKPEDTAVYFCNAYKRIKANGYAIRYYYWGQGTQVTVSS”, which “polyreactivity (PSR sort gate)” value is on record?
Answer: high polyreactivity

Question: Which “polyreactivity (PSR sort gate)” value does the source give for “QVQLVESGGGLVQAGGSLRLSCAASGFTFYGYAMGWYRQAPGKERELVAGISKNGGSTYYADSVKGRFTISRDNAKNTVYLQMNSLKPEDTAVYYCNKRSTLNTRRDYWGQGTQVTVSS” here?
Answer: high polyreactivity

Question: With “QVQLVESGGGLVQAGGSLRLSCAASGRTSKVYAMGWYRQAPGKERELVARITSSGVRTYYADSVKGRFTISRDNAKNTVYLQMNSLKPEDTAVYYCAKDARALWLHSGIYDYWGQGTQVTVSS” as the sequence, how does the “polyreactivity (PSR sort gate)” value read?
Answer: low polyreactivity

Question: For “QVQLVESGGGLVQAGGSLRLSCAASGSTFVSSALGWSSQAPGKARELVARIRRSGGSTYYADSVKGRFTISRDNAKNTVYLQMNSLKPEDTAVYDCAAGYSRGQYRYNYWGQGTQVTVSS”, which “polyreactivity (PSR sort gate)” value is on record?
Answer: high polyreactivity

Question: With “QVQLQESGGGLVQAGGSLRLSCEASGYISLAQTIGWYRQAPGKEREFVASIALGSSTYYTDSVKGSFTISRDKEKTTVYLQMNSLKPAETGVYYCAARVGASYAHDYWGQGTQVTVSS” as the sequence, how does the “polyreactivity (PSR sort gate)” value read?
Answer: low polyreactivity

Question: For “QVQLVESGGGLVQAGGSLRLSCAASGRIFHYYAMGWYRQAPGKEWELVAAISTSGGSTYYADSVKGRFTISRDNANNTVYIQMNSLKPEDTAVYYCAAVLPRYRRFDYWGQGTQVTVSS”, which “polyreactivity (PSR sort gate)” value is on record?
Answer: high polyreactivity

Question: With “QVQLVESGGGLVQAAGSLRLSCAASGGTFWFYDMGWYRQAPGKERELVAAINSDGSTYYADSVKGRFTISRDNAKNTVYLQMNSLKPEDTAVYYCAVDQTYVGEGLSEVDVGYWGQGTQVTVSS” as the sequence, how does the “polyreactivity (PSR sort gate)” value read?
Answer: low polyreactivity

Question: Which “polyreactivity (PSR sort gate)” value does the source give for “QVQLVESGGGLVQAGGSLRLSCAASGRTLKYNAMGWYRQAPGKERELVAAISWSGTRTYYADSVKGRFTISRDNAKNTVYLQMNSLKPEDTAVYYCALYGGLGDRFRPRYYWGQGTQVTVSS” here?
Answer: high polyreactivity

Question: With “QVQLVESGGGLVQAGGSLRLSCAASGFIFSWNDLGWYRQATGKERELVAAITSGTGSTYYADSVKGRFTISRDNAKNTVYLQMNSLKPEDTAVYYCAAGTNYGKLRIRFDYWGQGTQVTVSS” as the sequence, how does the “polyreactivity (PSR sort gate)” value read?
Answer: low polyreactivity

Question: Which “polyreactivity (PSR sort gate)” value does the source give for “QVQLVESGVGLVQAGGSLRLSCAASGLIFYHNAMGWYRQAPGKERELVAAISRSGGRTYYADSVKGRFTISRDNAKNTVYLQMNSLKPEDSAVYYCAVYRSSDFDYWGQGTQVTVSS” here?
Answer: high polyreactivity

Question: For “QVQLVESGGGLDQAGGSLRLSCAASGRIFYYYPMGWYRQAPGKERELVAGIDSGDSTNYADSVKGRFTITRDNAKNTVYLQINSLKPEDTAVYYCAALHYGGYFSYYPYYYWGQGTQATVSS”, which “polyreactivity (PSR sort gate)” value is on record?
Answer: low polyreactivity

Question: For “QVQLVESGGGLVQAGGSLRLSCAASGLTLQGYVMGWSRQAPGKDRELVATISYSGGSTRYADSVKGRFTISRDNAKNTVYLQMNSLNPEDTAVYYCNRDSFHYYAERDYWGQGTQVTVSS”, which “polyreactivity (PSR sort gate)” value is on record?
Answer: low polyreactivity

Question: For “QVQLVESGGGLVQAGGSLRLSFAASGSIFYAYAMGWYRQAPGKERELVAGISGGGSTNYADSVKGRFTISRDNAKNTVYLQMNSLKPEDTAVYYCAADGWLSATYDGLPDSDSWGQGTQVTVSS”, which “polyreactivity (PSR sort gate)” value is on record?
Answer: high polyreactivity

Question: With “QVQLVESGGGLVQAGGSLRLSCAASGFIFYAYVMGWYRQAPGKERELVAAISRNGGSTYYADSVKGRFTISRDNAKNTVYLQMKSLKPEDTAVYYCAALSYYRYSQEDDYWGQGTQVTVSS” as the sequence, how does the “polyreactivity (PSR sort gate)” value read?
Answer: high polyreactivity

Question: With “QVQLVESGGGLVQAGGSLRLSCAASGSTFYTYAMGWYRQAPGKERELVAAITSGGSTYYADSVKGRFTISRDNAKNTVYLQMNSLKPEDTAVYYCAARPYPHSAYEGDYWGRGTQVTVSS” as the sequence, how does the “polyreactivity (PSR sort gate)” value read?
Answer: low polyreactivity

Question: With “QVQLVESGGGLVQAGASLRLSCAASGRIFRYNAMGWYRQAPGKERELVAAISSGGSRNYADSVKGRFTTSRDNSKNTVYLQMNSLKPEDTAVYYCNAESVHRYPGWGYDYWGHGTQVTVSS” as the sequence, how does the “polyreactivity (PSR sort gate)” value read?
Answer: low polyreactivity

Question: With “QVQLVESGGGLVQAGGSLRLSCAASGFILYYYAMGWSRQAPGKERELVAAISWSGDSTYYADSVKGRFTISRDNAKNTVYLQMNSLKPEDTAVYYCAATWQLTHRYYWGQGTQVTVSS” as the sequence, how does the “polyreactivity (PSR sort gate)” value read?
Answer: low polyreactivity
